These results are taken from patent publication US20220242935A1.

Common to all, as to test: crystal structure of the Fab-NA complex
Test [1] concerns the target N9 NA ectodomain of A/Hunan/02650/2016 (H7N9) (influenza A virus A/Hunan/02650/2016 (H7N9)).
For test [2], the target named is N2 NA ectodomain of A/Japan/305/1957 (H2N2) (influenza A virus A/Japan/305/1957 (H2N2)).
The target of test [3] is N1 NA ectodomain of A/California/04/2009 (H1N1) (influenza A virus A/California/04/2009 (H1N1)) (UniProt Q6DPI6).

With 1G04 Fab, the total buried surface area on the NA in test [1] is 1030 Å2.

With 1E01 Fab, the total buried surface area on the NA in test [2] was found to be 900 Å2.

In turn, 1G01 Fab returned a total buried surface area on the NA in test [3] of 800 Å2.
